B1: GST-fused MDGA2-L2 (MDGA2 aa 787-833) (domain or fragment, human, UniProt Q7Z553 787-833, looked up)
chain: NADRSGSKEGFYMYIETSRPRLEGEKARLLSPVFSIAPKNPYGPTNT
notes: MDGA2, human, residues 787-833 (L2, second segment of the M1 half of the MAM domain); also called GST-tagged L2; source: bacteria, purified (Glutathione Sepharose 4B)
B2: MDGA2-P2 peptide (aa 812-833), label not stated (peptide)
peptide: KARLLSPVFSIAPKNPYGPTNT
notes: MDGA2, human, residues 812-833 (P2); The methods tell the synthesis only of the biotin-labeled peptide; also called MDGA2-derived peptide; source: synthetic peptide

How the values were obtained:
[1] = molecular target: T1, recombinant TrkB protein (full-length human TrkB, His) (human, UniProt Q16620 32-822); experiment: pull-down; purified human TrkB protein incubated with GST-fused MDGA2-L1, MDGA2-L2 or GST and pulled down with Glutathione Sepharose 4B; immunoblot; conditions: both partners purified
T1 construct: TrkB, human, full-length cDNA in the pcDNA6-His vector; also called purified human TrkB protein; human TrkB protein; source: HEK293T, purified (His-tag Protein Purification Kit)
T1 sequence (Q16620 32-822): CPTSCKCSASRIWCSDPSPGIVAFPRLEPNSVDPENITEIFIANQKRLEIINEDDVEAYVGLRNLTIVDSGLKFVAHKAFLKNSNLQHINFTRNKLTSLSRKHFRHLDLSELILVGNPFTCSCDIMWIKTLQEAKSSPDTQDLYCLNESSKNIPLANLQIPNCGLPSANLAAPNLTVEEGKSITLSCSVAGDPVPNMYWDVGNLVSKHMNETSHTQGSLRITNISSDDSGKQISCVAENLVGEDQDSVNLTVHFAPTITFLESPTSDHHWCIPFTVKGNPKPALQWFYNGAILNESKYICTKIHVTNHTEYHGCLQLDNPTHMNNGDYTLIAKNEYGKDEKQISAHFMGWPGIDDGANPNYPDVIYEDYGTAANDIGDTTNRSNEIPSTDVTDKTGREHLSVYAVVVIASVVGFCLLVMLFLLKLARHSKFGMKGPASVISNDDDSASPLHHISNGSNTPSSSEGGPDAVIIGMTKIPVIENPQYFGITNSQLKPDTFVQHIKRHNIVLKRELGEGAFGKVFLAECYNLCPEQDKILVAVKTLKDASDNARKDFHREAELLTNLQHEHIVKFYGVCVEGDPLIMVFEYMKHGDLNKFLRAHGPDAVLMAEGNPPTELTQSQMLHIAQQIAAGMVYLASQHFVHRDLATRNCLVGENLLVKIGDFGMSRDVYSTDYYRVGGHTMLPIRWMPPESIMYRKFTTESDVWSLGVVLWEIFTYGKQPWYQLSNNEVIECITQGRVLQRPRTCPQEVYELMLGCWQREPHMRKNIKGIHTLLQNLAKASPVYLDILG

[2] = molecular target: T1, recombinant TrkB protein (full-length …); experiment: SPR; TrkB immobilised on a Biacore CM5 chip by amine coupling; recombinant MDGA2 protein or MDGA2-P2 peptide flowed over at a series of concentrations; Biacore T100 Evaluation software; conditions: both partners purified

Binder	binding result [1]	Kd [2]
B1	binds	
B2		9.2 nM
